According to patent US20190330360A1 (IGM BIOSCIENCES, published 2019):

T1: GITR on activated human T cells (human, UniProt Q9Y5U5 26-241)
T1 construct: also called GITR on CD4 T cells
T1 sequence: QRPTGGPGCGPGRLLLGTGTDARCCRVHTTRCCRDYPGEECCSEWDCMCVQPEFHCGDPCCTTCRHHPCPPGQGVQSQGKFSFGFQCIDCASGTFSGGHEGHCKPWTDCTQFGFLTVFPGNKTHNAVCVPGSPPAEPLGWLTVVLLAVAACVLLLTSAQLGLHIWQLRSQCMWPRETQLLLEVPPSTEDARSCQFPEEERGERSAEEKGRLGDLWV


Target: T1, GITR on activated human T cells
Assay: flow cytometry, binding dose response on activated human T cells
Experimental: To assess the ability of IgG and IgM antibodies to bind GITR on activated T cells, a binding assay was performed by the following method. Tissue culture plates were coated with 5 μg/mL of anti-CD3 (eBioscience #16-0037-85) at 4° C. overnight, then washed 2 times with PBS. Purified human CD3 T cells (Astarte Biologics) were seeded at 0.1×10⁶ cells/well and incubated with 2 μg/mL of soluble anti-CD28 (Invitrogen #16-0289-85) for 4 days at 37° C. Cells were washed with FACS Stain Buffer (BD Pharmigen Catalog #554656) and 1×10⁵ cells were stained with serial dilutions of anti-GITR antibodies, 5 μg/mL IgG isotype control (Jackson ImmunoResearch #009-000-003), or 5 μg/mL IgM isotype control (Jackson ImmunoResearch #009-000-012) for 30 minutes at 4° C. Cells were washed twice, then stained for 30 minutes at 4° C. with 5 μg/mL anti-human kappa-AF488 secondary antibody (Biolegend #316512), and anti-human CD4-APC (BD Biosciences #555349) and anti-human CD25-PerCP (Biolegend #356111) for immunophenotyping. Cells were washed twice, resuspended in FACS Stain Buffer, and acquired by flow cytometry. The results are shown in FIG. 3A (Anti-GITR IgG and IgM #1) and FIG. 3B (Anti-GITR IgG and IgM #2). Filled histograms, Isotype controls; Open histograms, Anti-GITR antibodies. All the constructs bound to the activated T cells.

Binder	binding result
Anti-GITR IgG #2 (antibody, V domains shown, VH and VL put into IgG format; Detected with anti-human kappa; also called Anti-GITR #2 IgG; Anti-GITR #2 (IgG format)) VH: QVQLVESGGGVVQPGRSLRLSCAASGFTFSSYGMHWVRQAPGKGLEWVAVIWYEGSNKYYADSVKGRFTISRDNSKNTLYLQMNSLRAEDTAVYYCARGGSMVRGDYYYGMDVWGQGTTVTVSS VL: AIQLTQSPSSLSASVGDRVTITCRASQGISSALAWYQQKPGKAPKLLIYDASSLESGVPSRFSGSGSGTDFTLTISSLQPEDFATYYCQQFNSYPYTFGQGTKLEIK	binds
Anti-GITR IgG #1 (antibody, V domains shown, VH and VL put into IgG format; Detected with anti-human kappa; also called Anti-GITR #1 IgG; Anti-GITR #1 (IgG format)) VH: QVQLVESGGGVVQPGRSLRLSCAASGFTFSSYGMHWVRQAPGKGLEWMAVIWYVGSNKYYADSVKGRFTISRDNSKNTLYLQMNSLRAEDTAVYYCARGGELGRDYYSGMDVWGQGTTVTVSS VL: DIQMTQSPSSLSASVGDRVTITCRASQGIRNDLGWYQQKPGKAPKRLIYAASSLQSGVPSRFSGSGSGTEFTLTISSLQPEDFATYYCQQHNSYPWTFGQGTKVEIKR	binds
